The record followed here is article PMC8041823, “Structural comparison of Acinetobacter baumannii β-ketoacyl-acyl carrier protein reductases in fatty acid and aryl polyene biosynthesis” (Scientific Reports, 2021).

This assay addresses T1, Acinetobacter baumannii ApeQ (β-ketoacyl-ACP reductase of the aryl polyene biosynthesis gene cluster) (Acinetobacter baumannii (clinical CRAB …)).
T1 construct: ApeQ of A. baumannii, amplified from genomic DNA of the clinical carbapenem-resistant strain C1 with primers designed on the A. baumannii ACICU genome; NCBI ACC55845.1; Cloned NdeI/XhoI into pET28a; His-tag removed with thrombin; Residues of the thrombin site may be left at the N-terminus; also called AbApeQ; source: E. coli BL21 (DE3), purified (Chelating Sepharose, thrombin, Q-Sepharose anion …)
The experiment in a line: ITC; 2 mM holo ACP1 titrated into 0.1 mM reductase; 20 mM Tris pH 8, 100 mM NaCl, 2 mM NADPH; 25 °C; MicroCal 200. The following applies: both partners purified. A general note: ITC needs no label: the signal is the heat of the interaction.

B1: holo ACP1 (acyl carrier protein 1 of the A. baumannii aryl polyene biosynthesis gene cluster) (natural protein)
chain: MSNLADELKQMIIDVLALEDITIADIDTEAPLFGEGLGLDSIDALELGLALKKRYNIHLNAESDETKQHFKSIQSLVALVEAQQKS
modifications: holo form (phosphopantetheine arm; made by co-expression with holo-ACP synthase AbAcpS); residue not stated
Usually Kd stands for the concentration at which binding is half-saturated. Lower therefore signals tighter binding. The stoichiometry N is a count of units in the complex or per binding partner. As for B1, the Kd is approximately 80 µM, the dH turned out to be 3.05 kcal/mol and the “stoichiometry N” value amounted to 1.11.
